Test results: patent publication US20210355204A1

How the values were obtained:
Test in all cases: SPR competition: 4 nM TGFβ pre-mixed with TGFβ-RIIb-Fc, injected over immobilised XPA.42.089 (competitor)
[1] = target: TGFβ1 (human) (UniProt P01137)
[2] = target: TGFβ2 (human) (UniProt P61812)
[3] = target: TGFβ3 (human) (UniProt P10600)

- average RU of TGFβ binding [1]: -0.316 RU
- average RU of TGFβ binding [2]: 38.2 RU
- average RU of TGFβ binding [3]: -0.378 RU
Substance: TGFβ-RIIb-Fc recombinant receptor (from UniProt P37173 23-184) (Fc fusion)
